Test results as given in patent publication US20050278809A1.

Columns and labels:
[1] = molecular target: GAL4 DB-HDA19 fusion (pDBLeu-HDA19), expressed in MaV203 yeast (yeast; Arabidopsis thaliana) (UniProt P04386); assay: cell-based or functional assay
[2] = molecular target: tobacco ortholog of the transcription repressor HDA19 (tobacco); assay: cell-based or functional assay
[3] = scale: % reduction relative to full-length bnKCP1
[4] = scale: % further reduction relative to the other mutants

Row | β-galactosidase activity (lacZ reporter, yeast two-hybrid, CPRG) (% reduction relative to wild type BnSCL1) [1] | Substance | also measured
1 |  | GAL4 AD-bnKCP1^1-80 fusion (pPC86-bnKCP1^1-80), expressed in MaV203 yeast (from UniProt Q84U09 1-80) | β-galactosidase activity (lacZ reporter, yeast two-hybrid, CPRG) [1, 3]: > 50
2 | > 50 | GAL4 AD-BnSCL1^1-358 fusion (pPC86-BnSCL1^1-358), expressed in MaV203 yeast | 
3 |  | GAL4BD-BnSCL1 fusion protein (effector plasmid GAL4-BnSCL1), expressed transiently in tobacco leaves (from UniProt P04386 1-147) | GUS gene expression (transient assay in bombarded tobacco leaves, fluorometric) [2]: 50 % decrease
4 | > 50 | GAL4 AD-BnSCL1^1-261 fusion (pPC86-BnSCL1^1-261), expressed in MaV203 yeast | 
5 | > 50 | GAL4 AD-BnSCL1^1-217 fusion (pPC86-BnSCL1^1-217), expressed in MaV203 yeast | 
6 | > 50 | GAL4 AD-BnSCL1^146-358 fusion (pPC86-BnSCL1^146-358), expressed in MaV203 yeast | 
7 | > 50 | GAL4 AD-BnSCL1^1-145 fusion (pPC86-BnSCL1^1-145), expressed in MaV203 yeast | β-galactosidase activity (lacZ reporter, yeast two-hybrid, CPRG) [1, 4]: > 50
8 |  | GAL4 AD-bnKCP1^1-160 fusion (pPC86-bnKCP1^1-160), expressed in MaV203 yeast (from UniProt Q84U09 1-160) | β-galactosidase activity (lacZ reporter, yeast two-hybrid, CPRG) [1, 3]: > 50
9 | > 50 | GAL4 AD-BnSCL1^218-438 fusion (pPC86-BnSCL1^218-438), expressed in MaV203 yeast | β-galactosidase activity (lacZ reporter, yeast two-hybrid, CPRG) [1, 4]: > 50
